Source: publication PMC9352680, “A comprehensive thermodynamic model for RNA binding by the Saccharomyces cerevisiae Pumilio protein PUF4”
Where a chain is given by its changes, count along the chain named. Numbers in names are those of the source.

T1: PUF4 RNA-binding domain (Saccharomyces cerevisiae, UniProt P25339 537-888)
T1 sequence: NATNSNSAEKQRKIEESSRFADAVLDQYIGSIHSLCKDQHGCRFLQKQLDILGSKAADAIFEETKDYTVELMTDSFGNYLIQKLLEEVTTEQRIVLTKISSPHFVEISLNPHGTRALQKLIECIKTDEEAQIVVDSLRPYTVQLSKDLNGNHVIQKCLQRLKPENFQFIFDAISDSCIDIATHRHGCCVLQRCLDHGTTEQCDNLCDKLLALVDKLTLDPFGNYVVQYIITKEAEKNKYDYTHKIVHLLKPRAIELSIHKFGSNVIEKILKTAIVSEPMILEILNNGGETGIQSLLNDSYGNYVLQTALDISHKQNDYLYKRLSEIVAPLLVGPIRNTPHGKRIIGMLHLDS

B1: Ia_S1_P4E.1_K4.1_C4.1_H4.1_[G2C]_A4.1_F4.1_T4.1 (ssRNA)
RNA: UCUCUUUCUAUAUUAUCUCUU
B2: Ib_S1_P4E.1_K4.1_C4.1_H4.1_[G2A]_A4.1_F4.1_[T8G]_T4.1 (ssRNA)
RNA: UCUCUUUAUAUAUGAUCUCUU
B3: Ic_S2_P5E.1_K5.1_C5.1_H5.1_A5.1_[T6C]_[A7C]_F5.1_[T8G]_[T9C]_[A10T]_T5.1 (ssRNA)
RNA: UUUGAUUAAUAUGAUAUCGUUCUUUCUUGUAUCCGCUUUCUUUCUCGAUAUCAUAUUAAUCUUU
B4: Ic_S2_P5E.1_K5.1_C5.1_H5.1_A5.1_[T5A]_[T6C]_[A7T]_F5.1_[T8C]_[T9A]_T5.1 (ssRNA)
RNA: B3 RNA with U32A, C34U, G35C, C36A, U37A
B5: Ic_S2_P5E.1_K5.1_C5.1_H5.1_A5.1_[A7C]_F5.1_[T8C]_[T9C]_[A10T]_T5.1 (ssRNA)
RNA: B3 RNA with C33U, G35C
B6: Ic_S2_P5E.1_K5.1_C5.1_H5.1_A5.1_[T5C]_[T6C]_[A7T]_F5.1_[T8C]_[T9C]_T5.1 (ssRNA)
RNA: B3 RNA with U32C, C34U, G35C, U37A
B7: Ic_S2_P5E.1_K5.1_C5.1_H5.1_A5.1_[T6C]_F5.1_[T8A]_[T9A]_[A10C]_T5.1 (ssRNA)
RNA: B3 RNA with C34A, G35A, C36A, U37C
B8: Ic_S2_P5E.1_K5.1_C5.1_H5.1_A5.1_[T5C]_[A7C]_F5.1_[T8A]_[T9G]_[A10C]_T5.1 (ssRNA)
RNA: B3 RNA with U32C, C33U, G35A, C36G, U37C
B9: Ic_S2_P5E.1_K5.1_C5.1_H5.1_A5.1_[T5C]_[T6C]_[A7G]_F5.1_[T8A]_[T9C]_[A10C]_T5.1 (ssRNA)
RNA: B3 RNA with U32C, C34G, G35A, U37C
B10: Ic_S2_P5E.1_K5.1_C5.1_H5.1_A5.1_[T5C]_[T6A]_[A7G]_F5.1_[T8C]_[T9C]_T5.1 (ssRNA)
RNA: B3 RNA with U32C, C33A, C34G, G35C, U37A
B11: Ic_S2_P5E.1_K5.1_C5.1_H5.1_A5.1_[T5G]_[T6C]_[A7T]_F5.1_[T8C]_[A10C]_T5.1 (ssRNA)
RNA: B3 RNA with U32G, C34U, G35C, C36U, U37C
B12: Ic_S2_P5E.1_K5.1_C5.1_H5.1_A5.1_[T6A]_[A7T]_F5.1_[T8C]_[T9G]_[A10C]_T5.1 (ssRNA)
RNA: B3 RNA with C33A, C34U, G35C, C36G, U37C
B13: Ic_S2_P5E.1_K5.1_C5.1_H5.1_A5.1_[T6A]_[A7G]_F5.1_[T9A]_[A10C]_T5.1 (ssRNA)
RNA: B3 RNA with C33A, C34G, G35U, C36A, U37C
B14: Ic_S2_P5E.1_K5.1_C5.1_H5.1_A5.1_[T6A]_[A7G]_F5.1_[T9C]_[A10C]_T5.1 (ssRNA)
RNA: B3 RNA with C33A, C34G, G35U, U37C
B15: Ic_S2_P5E.1_K5.1_C5.1_H5.1_A5.1_[T5C]_[T6A]_[A7T]_F5.1_[T9A]_T5.1 (ssRNA)
RNA: B3 RNA with U32C, C33A, C34U, G35U, C36A, U37A
B16: Ic_S2_P5E.1_K5.1_C5.1_H5.1_A5.1_F5.1_[T8C]_[T9A]_[A10T]_T5.1 (ssRNA)
RNA: B3 RNA with C33U, C34A, G35C, C36A
B17: Ic_S2_P5E.1_K5.1_C5.1_H5.1_A5.1_[T5C]_[T6A]_[A7C]_F5.1_[T9G]_[A10G]_T5.1 (ssRNA)
RNA: B3 RNA with U32C, C33A, G35U, C36G, U37G
B18: Ic_S2_P5E.1_K5.1_C5.1_H5.1_A5.1_[T5G]_[T6C]_F5.1_[T8C]_[A10G]_T5.1 (ssRNA)
RNA: B3 RNA with U32G, C34A, G35C, C36U, U37G
B19: Ic_S2_P5E.1_K5.1_C5.1_H5.1_A5.1_[T5G]_[T6C]_[A7C]_F5.1_[T8C]_[A10T]_T5.1 (ssRNA)
RNA: B3 RNA with U32G, G35C, C36U
B20: Ic_S2_P5E.1_K5.1_C5.1_H5.1_A5.1_[T5A]_[A7C]_F5.1_[T8A]_[T9C]_[A10C]_T5.1 (ssRNA)
RNA: B3 RNA with U32A, C33U, G35A, U37C
B21: Ic_S2_P5E.1_K5.1_C5.1_H5.1_A5.1_[T5G]_F5.1_[T8A]_[T9C]_[A10C]_T5.1 (ssRNA)
RNA: B3 RNA with U32G, C33U, C34A, G35A, U37C
B22: Ic_S2_P5E.1_K5.1_C5.1_H5.1_A5.1_[T5A]_[A7C]_F5.1_[T8C]_[T9C]_T5.1 (ssRNA)
RNA: B3 RNA with U32A, C33U, G35C, U37A
B23: Ic_S2_P5E.1_K5.1_C5.1_H5.1_A5.1_[T5C]_[T6G]_[A7C]_F5.1_[T8G]_[T9C]_[A10C]_T5.1 (ssRNA)
RNA: B3 RNA with U32C, C33G, U37C
B24: Ic_S2_P5E.1_K5.1_C5.1_H5.1_A5.1_[T5C]_[A7G]_F5.1_[T8G]_[T9C]_[A10T]_T5.1 (ssRNA)
RNA: B3 RNA with U32C, C33U, C34G
B25: Ic_S2_P5E.1_K5.1_C5.1_H5.1_A5.1_[T5C]_[T6A]_[A7T]_F5.1_[T8G]_[T9G]_[A10T]_T5.1 (ssRNA)
RNA: B3 RNA with U32C, C33A, C34U, C36G
B26: Ic_S2_P5E.1_K5.1_C5.1_H5.1_A5.1_[T6C]_F5.1_[T8A]_[A10T]_T5.1 (ssRNA)
RNA: B3 RNA with C34A, G35A, C36U
B27: Ic_S2_P5E.1_K5.1_C5.1_H5.1_A5.1_[T5C]_F5.1_[T8A]_[T9A]_T5.1 (ssRNA)
RNA: B3 RNA with U32C, C33U, C34A, G35A, C36A, U37A
B28: Ic_S2_P5E.1_K5.1_C5.1_H5.1_A5.1_[T6C]_[A7G]_F5.1_[T8G]_T5.1 (ssRNA)
RNA: B3 RNA with C34G, C36U, U37A
B29: Ic_S2_P5E.1_K5.1_C5.1_H5.1_A5.1_[T5C]_[T6G]_[A7T]_F5.1_[T8C]_[T9C]_[A10C]_T5.1 (ssRNA)
RNA: B3 RNA with U32C, C33G, C34U, G35C, U37C

Biological target: T1, PUF4 RNA-binding domain
Experiment: Mg; RNA-MaP; 20 mM Na-HEPES pH 7.4, 30 mM KOAc, 0.75 mM MgCl2, 0.1% Tween-20, 5% glycerol, 0.1 mg/mL BSA, 2 mM DTT; 25 C; 0.0125-409.6 nM protein
Settings: tags: N-His6-TEV cleaved; C-SNAP kept, Cy3B-labelled; label: tethered on chip by stalled RNA polymerase

Row | Binder | Kd [nM]
1 | B1 | 1380
2 | B2 | > 2300
3 | B3 | 596
4 | B4 | 1040
5 | B5 | 142
6 | B6 | 110
7 | B7 | 170
8 | B8 | 818
9 | B9 | 1140
10 | B10 | 119
11 | B11 | 383
12 | B12 | 21.9
13 | B13 | 2.48
14 | B14 | 17.8
15 | B15 | 0.373
16 | B16 | 444
17 | B17 | 4.81
18 | B18 | 794
19 | B19 | 254
20 | B20 | 545
21 | B21 | 832
22 | B22 | 669
23 | B23 | 548
24 | B24 | 1660
25 | B25 | 45.8
26 | B26 | 29.9
27 | B27 | 55.1
28 | B28 | 37.7
29 | B29 | 167
